Assay results published in paper doi:10.1101/2024.07.18.604210.

Legend:
[1] = target: C-terminal domain of SepF from M. tuberculosis (tbSepF-CTD, residues 146-241) (M. tuberculosis); assay: ITC
[2] = target: C-terminal domain of SepF from M. tuberculosis (tbSepF-CTD, residues 146-241) (M. tuberculosis); assay: SAXS
[3] = target: C-terminal domain of SepF from M. tuberculosis (tbSepF-CTD, residues 146-241) (M. tuberculosis); assay: AUC

Sequence of C-terminal domain of SepF from M. tuberculosis (tbSepF-CTD, residues 146-241) (M. tuberculosis) (A1KKJ0 123-218 limits assumed): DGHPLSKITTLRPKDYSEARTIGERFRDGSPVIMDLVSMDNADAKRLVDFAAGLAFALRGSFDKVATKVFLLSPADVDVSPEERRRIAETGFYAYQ

chemically synthesized 18-residue peptide from the C-terminal region of tbFtsZ
Kd [1]: 19.7 µM
stoichiometry N [1]: 1

C-terminal domain of SepF from M. tuberculosis (tbSepF-CTD, residues 146-241) (domain or fragment)
stoichiometry N [2]: 2
stoichiometry N [3]: 2
